Reference: IntAct's records for PubMed 16642037

B1: RAC-alpha serine/threonine-protein kinase (Rattus norvegicus (Rat)), P47196 (parent)
chain: MNDVAIVKEGWLHKRGEYIKTWRPRYFLLKNDGTFIGYKERPQDVEQRESPLNNFSVAQCQLMKTERPRPNTFIIRCLQWTTVIERTFHVETPEEREEWTTAIQTVADGLKRQEEETMDFRSGSPSDNSGAEEMEVALAKPKHRVTMNEFEYLKLLGKGTFGKVILVKEKATGRYYAMKILKKEVIVAKDEVAHTLTENRVLQNSRHPFLTALKYSFQTHDRLCFVMEYANGGELFFHLSRERVFSEDRARFYGAEIVSALDYLHSEKNVVYRDLKLENLMLDKDGHIKITDFGLCKEGIKDGATMKTFCGTPEYLAPEVLEDNDYGRAVDWWGLGVVMYEMMCGRLPFYNQDHEKLFELILMEEIRFPRTLGPEAKSLLSGLLKKDPTQRLGGGSEDAKEIMQHRFFANIVWQDVYEKKLSPPFKPQVTSETDTRYFDEEFTAQMITITPPDQDDSMECVDSERRPHFPQFSYSASGTA

Variants of: B1
Conditions: with nfkb1_rat Nfkb1, Q63369
Sequence of nfkb1_rat Nfkb1, Q63369 (Q63369 whole entry): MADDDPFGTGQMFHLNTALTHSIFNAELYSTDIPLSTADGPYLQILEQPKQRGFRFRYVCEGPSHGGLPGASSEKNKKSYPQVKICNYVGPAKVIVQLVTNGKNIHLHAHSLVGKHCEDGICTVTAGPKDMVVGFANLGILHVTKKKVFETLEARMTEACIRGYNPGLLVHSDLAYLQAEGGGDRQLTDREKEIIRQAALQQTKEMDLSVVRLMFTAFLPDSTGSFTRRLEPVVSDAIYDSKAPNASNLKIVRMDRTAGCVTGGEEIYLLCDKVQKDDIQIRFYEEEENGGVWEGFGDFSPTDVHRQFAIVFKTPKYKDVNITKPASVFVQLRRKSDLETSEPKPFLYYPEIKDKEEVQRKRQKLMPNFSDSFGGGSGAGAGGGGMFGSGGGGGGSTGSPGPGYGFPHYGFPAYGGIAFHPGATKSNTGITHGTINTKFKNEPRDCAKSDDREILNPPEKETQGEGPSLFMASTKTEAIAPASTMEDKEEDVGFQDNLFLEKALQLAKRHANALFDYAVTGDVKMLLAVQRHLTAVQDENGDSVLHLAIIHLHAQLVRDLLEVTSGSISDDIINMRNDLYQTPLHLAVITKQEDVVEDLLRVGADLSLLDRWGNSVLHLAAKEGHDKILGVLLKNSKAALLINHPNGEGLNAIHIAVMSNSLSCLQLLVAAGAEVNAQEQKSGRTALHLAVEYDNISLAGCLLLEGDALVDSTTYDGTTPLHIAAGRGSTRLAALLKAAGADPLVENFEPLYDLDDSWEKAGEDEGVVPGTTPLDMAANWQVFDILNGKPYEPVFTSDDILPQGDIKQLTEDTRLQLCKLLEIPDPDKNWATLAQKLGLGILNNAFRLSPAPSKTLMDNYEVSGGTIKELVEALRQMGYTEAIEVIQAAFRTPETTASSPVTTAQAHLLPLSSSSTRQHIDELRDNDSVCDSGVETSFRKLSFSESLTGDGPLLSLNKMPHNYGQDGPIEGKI

Effect of a mutation on the interaction, increasing interaction:
MNDVAIVKEGWLHKRGEYIKTWRPRYFLLKNDGTFIGYKERPQDVEQRESPLNNFSVAQCQLMKTERPRPNTFIIRCLQWTTVIERTFHVETPEEREEWTTAIQTVADGLKRQEEETMDFRSGSPSDNSGAEEMEVALAKPKHRVTMNEFEYLKLLGKGTFGKVILVKEKATGRYYAMAILKKEVIVAKDEVAHTLTENRVLQNSRHPFLTALKYSFQTHDRLCFVMEYANGGELFFHLSRERVFSEDRARFYGAEIVSALDYLHSEKNVVYRDLKLENLMLDKDGHIKITDFGLCKEGIKDGATMKTFCGTPEYLAPEVLEDNDYGRAVDWWGLGVVMYEMMCGRLPFYNQDHEKLFELILMEEIRFPRTLGPEAKSLLSGLLKKDPTQRLGGGSEDAKEIMQHRFFANIVWQDVYEKKLSPPFKPQVTSETDTRYFDEEFTAQMITITPPDQDDSMECVDSERRPHFPQFSYSASGTA [K179A]
MNDVAIVKEGWLHKRGEYIKTWRPRYFLLKNDGTFIGYKERPQDVEQRESPLNNFSVAQCQLMKTERPRPNTFIIRCLQWTTVIERTFHVETPEEREEWTTAIQTVADGLKRQEEETMDFRSGSPSDNSGAEEMEVALAKPKHRVTMNEFEYLKLLGKGTFGKVILVKEKATGRYYAMKILKKEVIVAKDEVAHTLTENRVLQNSRHPFLTALKYSFQTHDRLCFVMEYANGGELFFHLSRERVFSEDRARFYGAEIVSALDYLHSEKNVVYRDLKLENLMLDKDGHIKITDFGLCKEGIKDGATMKDFCGTPEYLAPEVLEDNDYGRAVDWWGLGVVMYEMMCGRLPFYNQDHEKLFELILMEEIRFPRTLGPEAKSLLSGLLKKDPTQRLGGGSEDAKEIMQHRFFANIVWQDVYEKKLSPPFKPQVTSETDTRYFDEEFTAQMITITPPDQDDSMECVDSERRPHFPQFSYSASGTA [T308D]
MNDVAIVKEGWLHKRGEYIKTWRPRYFLLKNDGTFIGYKERPQDVEQRESPLNNFSVAQCQLMKTERPRPNTFIIRCLQWTTVIERTFHVETPEEREEWTTAIQTVADGLKRQEEETMDFRSGSPSDNSGAEEMEVALAKPKHRVTMNEFEYLKLLGKGTFGKVILVKEKATGRYYAMKILKKEVIVAKDEVAHTLTENRVLQNSRHPFLTALKYSFQTHDRLCFVMEYANGGELFFHLSRERVFSEDRARFYGAEIVSALDYLHSEKNVVYRDLKLENLMLDKDGHIKITDFGLCKEGIKDGATMKTFCGTPEYLAPEVLEDNDYGRAVDWWGLGVVMYEMMCGRLPFYNQDHEKLFELILMEEIRFPRTLGPEAKSLLSGLLKKDPTQRLGGGSEDAKEIMQHRFFANIVWQDVYEKKLSPPFKPQVTSETDTRYFDEEFTAQMITITPPDQDDSMECVDSERRPHFPQFDYSASGTA [S473D]
